Measurements reported in IntAct's records for PubMed 20627101.

B1: Induced myeloid leukemia cell differentiation protein Mcl-1 homolog (Mus musculus), P97287 (parent)
chain: MFGLRRNAVIGLNLYCGGASLGAGGGSPAGARLVAEEAKARREGGGEAALLPGARVVARPPPVGAEDPDVTASAERRLHKSPGLLAVPPEEMAASAAAAIVSPEEELDGCEPEAIGKRPAVLPLLERVSEAAKSSGADGSLPSTPPPPEEEEDDLYRQSLEIISRYLREQATGSKDSKPLGEAGAAGRRALETLRRVGDGVQRNHETAFQGMLRKLDIKNEGDVKSFSRVMVHVFKDGVTNWGRIVTLISFGAFVAKHLKSVNQESFIEPLAETITDVLVRTKRDWLVKQRGWDGFVEFFHVQDLEGGIRNVLLAFAGVAGVGAGLAYLIR

Variants of: B1
Details: with ch60_human HSPD1, P10809
Sequence of ch60_human HSPD1, P10809 (P10809 whole entry): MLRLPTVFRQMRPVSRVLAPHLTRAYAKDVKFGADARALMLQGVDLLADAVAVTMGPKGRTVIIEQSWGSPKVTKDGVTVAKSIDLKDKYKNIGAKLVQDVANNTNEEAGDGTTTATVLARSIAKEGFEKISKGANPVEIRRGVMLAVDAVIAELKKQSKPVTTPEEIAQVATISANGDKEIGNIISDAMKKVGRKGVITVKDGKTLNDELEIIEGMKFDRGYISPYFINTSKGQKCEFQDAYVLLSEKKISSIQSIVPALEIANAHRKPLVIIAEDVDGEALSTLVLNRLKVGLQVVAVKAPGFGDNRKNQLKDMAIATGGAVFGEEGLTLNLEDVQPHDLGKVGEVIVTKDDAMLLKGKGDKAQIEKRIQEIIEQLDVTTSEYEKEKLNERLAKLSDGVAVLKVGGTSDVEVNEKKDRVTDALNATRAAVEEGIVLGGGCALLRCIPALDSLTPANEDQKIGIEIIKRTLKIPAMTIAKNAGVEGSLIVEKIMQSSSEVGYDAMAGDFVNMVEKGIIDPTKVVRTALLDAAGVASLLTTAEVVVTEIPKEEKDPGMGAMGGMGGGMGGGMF

Row | effect of a mutation on the interaction | Variant
1 | disrupting interaction | MFGLRGNAVIGLNLYCGGASLGAGGGSPAGARLVAEEAKARREGGGEAALLPGARVVARPPPVGAEDPDVTASAERRLHKSPGLLAVPPEEMAASAAAAIVSPEEELDGCEPEAIGKRPAVLPLLERVSEAAKSSGADGSLPSTPPPPEEEEDDLYRQSLEIISRYLREQATGSKDSKPLGEAGAAGRRALETLRRVGDGVQRNHETAFQGMLRKLDIKNEGDVKSFSRVMVHVFKDGVTNWGRIVTLISFGAFVAKHLKSVNQESFIEPLAETITDVLVRTKRDWLVKQRGWDGFVEFFHVQDLEGGIRNVLLAFAGVAGVGAGLAYLIR [R6G]
2 | disrupting interaction | MFGLRRNAVIGLNLYCGGASLGAGGGSPAGAGLVAEEAKARREGGGEAALLPGARVVARPPPVGAEDPDVTASAERRLHKSPGLLAVPPEEMAASAAAAIVSPEEELDGCEPEAIGKRPAVLPLLERVSEAAKSSGADGSLPSTPPPPEEEEDDLYRQSLEIISRYLREQATGSKDSKPLGEAGAAGRRALETLRRVGDGVQRNHETAFQGMLRKLDIKNEGDVKSFSRVMVHVFKDGVTNWGRIVTLISFGAFVAKHLKSVNQESFIEPLAETITDVLVRTKRDWLVKQRGWDGFVEFFHVQDLEGGIRNVLLAFAGVAGVGAGLAYLIR [R32G]
3 | disrupting interaction | MFGLGRNAVIGLNLYCGGASLGAGGGSPAGARLVAEEAKARREGGGEAALLPGARVVARPPPVGAEDPDVTASAERRLHKSPGLLAVPPEEMAASAAAAIVSPEEELDGCEPEAIGKRPAVLPLLERVSEAAKSSGADGSLPSTPPPPEEEEDDLYRQSLEIISRYLREQATGSKDSKPLGEAGAAGRRALETLRRVGDGVQRNHETAFQGMLRKLDIKNEGDVKSFSRVMVHVFKDGVTNWGRIVTLISFGAFVAKHLKSVNQESFIEPLAETITDVLVRTKRDWLVKQRGWDGFVEFFHVQDLEGGIRNVLLAFAGVAGVGAGLAYLIR [R5G]
